According to patent US20240368307A1, “METHODS AND COMPOSITIONS FOR TREATING SEPSIS” (THE UNIVERSITY OF CHICAGO, priority 2023, published 2024):

How the values were obtained:
human recombinant PLA2G5 = target: T1, human recombinant PLA2G5 (Homo sapiens, UniProt P39877); experiment: In vitro erythrocyte lysis assay with varespladib; format: cell-based; details: 100 nM of varespladib; PS-exposing erythrocytes
T1 construct: purchased Cayman chemical 10009563
T1 sequence (P39877 21-138): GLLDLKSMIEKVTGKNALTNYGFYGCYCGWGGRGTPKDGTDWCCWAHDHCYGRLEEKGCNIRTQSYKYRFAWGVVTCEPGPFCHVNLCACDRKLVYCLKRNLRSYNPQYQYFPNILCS
Method: (§1) The inventors hypothesized that PLA2G5 impacted red blood cells because of the impact of PLA2G5 blockade on splenic red pulp macrophages and iron stores. […] Next, the inventors examined the effect of osmotic pressure on the hemolysis induced by rPLA2G5.
In vitro erythrocyte lysis assay. Mouse whole blood was spun at 1,000 g, the plasma and buffy coat were removed, and red blood cells were washed three times in Hepes-buffered saline. Subsequently, a portion of erythrocytes was incubated with 100 μM CaCl2) in Hepes-buffered saline for 3 min at 37° C. Calcium ionophore (Cayman Chemical, A23187) was added to a final concentration of 4 μM, and the cells were further incubated for 10 min at 37° C. to induce membrane phospholipid (PS) scrambling. After that, 2 mM EDTA was added to stop the reaction. […] Hemolysis was measured by determining the amount of oxyhemoglobin in the supernatant of erythrocyte suspensions after centrifugation at 4,000 g. The absorbance at 414 nm in the supernatant of erythrocyte suspensions was measured using Nanodrop (Thermoscientific) and compared to that of a hemolyzed aliquot of the same erythrocyte suspension treated with Triton X-100.

mouse RBCs = experiment: In vitro erythrocyte lysis assay with recombinant PLA2G5; format: cell-based
Method: as §1
In vitro erythrocyte lysis assay. Mouse whole blood was spun at 1,000 g, the plasma and buffy coat were removed, and red blood cells were washed three times in Hepes-buffered saline. Subsequently, a portion of erythrocytes was incubated with 100 μM CaCl2) in Hepes-buffered saline for 3 min at 37° C. Calcium ionophore (Cayman Chemical, A23187) was added to a final concentration of 4 μM, and the cells were further incubated for 10 min at 37° C. to induce membrane phospholipid (PS) scrambling. After that, 2 mM EDTA was added to stop the reaction. In the presence or absence of 100 nM of varespladib, hypertonic solution (100 mM NaCl), or hypotonic solution (water-diluted Hepes-buffered saline), PS-exposing or untreated erythrocytes (10^9 cells/mL) were incubated with 5, 50, or 500 ng/mL of human recombinant PLA2G5 (Cayman chemical, 10009563) for 1 h at 37° C. in Hepes-buffered saline with 2 mM of calcium for the activity of PLA2G5. Hemolysis was measured by determining the amount of oxyhemoglobin in the supernatant of erythrocyte suspensions after centrifugation at 4,000 g. The absorbance at 414 nm in the supernatant of erythrocyte suspensions was measured using Nanodrop (Thermoscientific) and compared to that of a hemolyzed aliquot of the same erythrocyte suspension treated with Triton X-100.

erythrocytes = experiment: Lipidomics analysis of erythrocytes incubated with rPLA2G5; format: cell-based, mouse; details: 100 ng/mL rPLA2G5; 1 h at 37° C.
Text: To elucidate how PLA2G5 affected RBC membranes at the molecular level during hemolysis, the inventors performed lipidomics on erythrocytes in the presence or absence of rPLA2G5 in vitro.
Lipidomics analysis of erythrocytes. The procedures for lipidomics analysis using high-performance liquid chromatography coupled with electrospray tandem mass spectrometry (LC-ESI-MS/MS) were described above. Mouse whole blood was spun at 1,000 g, the plasma and buffy coat were removed, and red blood cells were washed three times in Hepes-buffered saline. Subsequently, a portion of erythrocytes was incubated with 100 μM CaCl2) in Hepes-buffered saline for 3 min at 37° C. Calcium ionophore (Cayman Chemical, A23187) was added to a final concentration of 4 μM, and the cells were further incubated for 10 min at 37° C. to induce membrane phospholipid (PS) scrambling. After that, 2 mM EDTA was added to stop the reaction. PS-exposing or untreated erythrocytes (10^9 cells/mL) were incubated with or without 100 ng/mL of human recombinant PLA2G5 (Cayman chemical, 10009563) for 1 h at 37° C. in Hepes-buffered saline with 2 mM of calcium for the activity of PLA2G5. The samples were kept at −80° C. until the following procedures.

[1] = Recombinant PLA2G5 injection in naive mice; format: in vivo, mouse; details: 10 μg rPLA2G5 intravenously
Text: Next, the inventors hypothesized that PLA2G5 impacted red blood cells in vivo during sepsis. To test this hypothesis, the inventors measured the plasma levels of heme, a degradation product of cell-free hemoglobin, in Pla2g5^+/+ and Pla2g5^−/− mice challenged with LPS. The inventors found a significant decrease in the plasma levels of heme in Pla2g5-deficient mice compared to wild type (FIG. 7A). […] The inventors next asked if PLA2G5 would be sufficient to induce intravascular hemolysis in vivo by injecting rPLA2G5 in naïve mice.
Recombinant PLA2G5 injections. C57BL/6J mice were injected intravenously with 10 μg of recombinant PLA2G5 (Cayman chemical, 10009563).
Blood analysis. Mouse whole blood was harvested by cardiac puncture and plasma and serum were isolated using lithium heparin coated Microtainer blood collection tubes (BD 365965) and Microtainer blood collection tubes (BD 365978), respectively. For flow cytometric, bead-based immunoassays, serum was diluted and processed using the LEGENDplex Mouse Macrophage/Microglia Panel (BioLegend 740846) kit. Data were acquired on the NovoCyte flow cytometer (Acea Biosciences/Agilent) and analyzed using the LEGNEDplex software v8 (BioLegend). To measure tissue injury marker levels in sera or plasma, samples were processed by In Vivo Animal Core, University of Michigan, with the following kits for BUN (BioAssay Systems DIUR-100), ALT (Cayman Chemical 700260), and troponin-I (Life Diagnostics CTNI-1-HS) levels according to the manufacturer's instructions, or with a Vet Axcel blood chemistry analyser (Alfa Wasserman). Total plasma heme was measured with the 3,3′,5,5′ tetramethylbenzidine (TMB) peroxidase assay and oxyhemoglobin with a Nanodrop One (Thermoscientific) instrument.

## CCc1c(C(=O)C(N)=O)c2c(OCC(=O)O)cccc2n1Cc1ccccc1 [varespladib]
Human recombinant PLA2G5
  effect on the hemolytic effects of rPLA2G5: the hemolytic effects of rPLA2G5 were dependent on its phospholipase activity

B1: rPLA2G5: human recombinant PLA2G5 (Cayman chemical, 10009563) (protein, UniProt P39877 21-138, looked up)
Phospholipase A2 group V: GLLDLKSMIEKVTGKNALTNYGFYGCYCGWGGRGTPKDGTDWCCWAHDHCYGRLEEKGCNIRTQSYKYRFAWGVVTCEPGPFCHVNLCACDRKLVYCLKRNLRSYNPQYQYFPNILCS
Mouse RBCs; RBCs treated with Ca2+ and calcium ionophore, 5, 50, or 500 ng/mL rPLA2G5, 1 h at 37° C.
  RBC lysis (cell-free oxyhemoglobin): increased RBC lysis in a dose-dependent manner
Mouse RBCs; hypertonic solution (100 mM NaCl)
  hemolysis mediated by rPLA2G5 in hypertonic conditions: inhibited hemolysis
Mouse RBCs; hypotonic solution (water-diluted Hepes-buffered saline)
  hemolysis mediated by rPLA2G5 in hypotonic conditions: promoted hemolysis
erythrocytes
  lipids released from RBC membranes: release of lysophospholipids with saturation and lower degrees of unsaturation and fatty acids
[1]
  plasma level of heme: sufficient to elevate
  plasma level of oxyhemoglobin: sufficient to elevate
  serum level of ALT: sufficient to elevate
  serum level of BUN: sufficient to elevate
